± gives the standard deviation of the averaged measurements.
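Also: ATP exposure 15 min at 22 °C before imaging.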

For this data set, the system named is ATP. As to the kind of experiment: switch fluorescence ratio, 500 uM ATP over buffer (Cy3 cluster intensity, sum of 5 cycles each) (fold (ratio)); higher = stronger signal-on switching upon ATP binding; sequences stand for … in TCGTCGGCAGCGTCAGATGTGTATAAGAGACAGTTTTTTTTTTTTTTTTTTTTTTTTT…TC. Particulars: aptamer strand: ATP DNA aptamer (quencher-CACCTGGGGGAGTATTGCGGAGGAAGG + anchor), 100 nM annealed; ATP concentration: 500 uM. In short, it runs like this: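 For every switch-domain sequence, the fluorescence ratio is the mean of per-cluster values, each being summed target-cycle Cy3 intensity over summed buffer-cycle Cy3 intensity. Clusters outside 100-1000 RFU were excluded. On a modified Illumina MiSeq flow-cell, the Cy3-labelled switching-strand clusters were annealed to 100 nM quencher-labelled ATP aptamer, imaged in selection buffer and then after 15 min with 500 uM ATP at 22 °C. Five such cycles were run, with NaOH stripping and re-annealing between them.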
With GGTGTAGGAC, the switch fluorescence ratio came out at 1.03 ± 0.012. As to GAGGCAGAAA, the switch fluorescence ratio came to 1.09 ± 0.044. Take AGGTAGGGAA: the switch fluorescence ratio came to 0.9928 ± 0.0037. To GCGATCAGCT belongs 1.034 ± 0.0022; to AGTTGGAAAA, 0.997 ± 0.01. With GATTGTAGTT, the switch fluorescence ratio was 0.9586 ± 0.0034. For CCGGATCGGC, the switch fluorescence ratio is 1.04 ± 0.029. In the case of GCTTATAATT, the switch fluorescence ratio was 0.991 ± 0.013.

With AAGGATTAAT, the switch fluorescence ratio is 0.987 ± 0.016. With GTTGGAGGAG the figure was 0.992 ± 0.026. As for TCAGCAATCG, the switch fluorescence ratio is 2.57 ± 0.026. In the case of GTGGAATGGG, the switch fluorescence ratio came out at 0.983 ± 0.055. With TGATGGGCAG the figure was 1.01 ± 0.047; with GTTGAATTGG, 0.985 ± 0.026; with TCGTACTGAC, 1.03 ± 0.044.

AATCTGTGTG: the switch fluorescence ratio was determined as 0.963 ± 0.042. Regarding AGGTGGGGG, the switch fluorescence ratio was determined as 0.979 ± 0.015. In the case of TCAAAAGGTG, the switch fluorescence ratio was 1.33 ± 0.22. Regarding TTCTATTTCT, the switch fluorescence ratio was found to be 0.9872 ± 0.0039.

As for ACCTACAAGG, the switch fluorescence ratio came out at 0.99429 ± 0.00094.

As for GGTTACAGTT, the switch fluorescence ratio is 1.036 ± 0.01.

The values above are taken from the supplement of paper PMC10126150.
